Results as given in patent US20190375846A1 (ULTRAHUMAN ONE, published 2019).

T1: human GITR-Fc (human, UniProt Q9Y5U5 26-161)
T1 construct: Recombinant GITR-Fc; also called hGITR-Fc; hGITR; not shown: Fc part
T1 sequence (looked up): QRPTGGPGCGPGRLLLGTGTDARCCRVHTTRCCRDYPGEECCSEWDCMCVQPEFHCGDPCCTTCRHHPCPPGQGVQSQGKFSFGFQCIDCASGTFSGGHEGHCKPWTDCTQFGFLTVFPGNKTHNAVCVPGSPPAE


What follows are binders tested against T1, human GITR-Fc (assay: direct titration ELISA, coated human GITR-Fc, IgG1).
Protocol: (§1) To coat Greiner Bio-One High bind ELISA plates, target proteins were diluted to 1 μg/ml in carbonate buffer and added at 100 μl per well, at 4° C., o/n. Coated plates were washed 3× with PBS pH7.4, blocked with 1% BSA in PBS (380 μl/well) for 1 hr at RT, then washed 3× with PBS-Tween 20 (PBST). GITR antibodies (100 μl/well; diluted in PBST) were then added and then incubated 1 hr at RT. Plates were then washed 3× with PBST and goat anti-human kappa chain-HRP added (100 μl/well) at RT, for 1 hr. Plates were then washed 3× with PBST and twice with PBS before the addition of 100 μl TMB per well. Reactions were stopped by adding 100 μl 2M H₂SO₄/well and OD was read on a plate reader at 450 nm. IgG binding analysis via ELISA on negatively charged biomolecular surfaces were performed as previously described (see Mouquet et al., 2010, Nature 467: 591-595).
(§2) Retention of GITR-binding function in the purified IgG1 proteins was first examined by titration in direct binding ELISA against human GITR-Fc. […] Importantly, the >100-fold loss of binding function in the VH2 IgG family further illustrated that the HCDR1 could not be fully germ-lined a priori to match the native sequence of the human germline HCDR1 found in the framework used for grafting (IGHV3-7).

fold loss of binding function (against mVH/mVL IgG)	binding result	Binder
> 100 fold	–	VH2/VL3 IgG1 (antibody, V domains shown, Human IgG1; also called VH2 family) VH: EVQLVESGGGLVQPGGSLRLSCAASGFTFSSYWMSWVRQAPGKGLEWLAHIWWDDDKYYVDSVKGRFTISRDNAKNSLYLQMNSLRAEDTAVYYCARTRRYFPFAYWGQGTLVTVSS VL: DIQMTQSPSSLSASVGDRVTITCRASQNVGTNVAWYQQKPGKAPKLLIYSASYRYSGVPSRFSGSGSGTDFTLTISSLQPEDFATYYCQQYNTDPLTFGGGTKVEIK
–	binds	MH-1 IgG1 (antibody, V domains shown, Human IgG1, designer clone; built as m28; also called Clone MH-1) VH: EVQLVESGGGLVQPGGSLRLSCAASGFSLSTSGMGMSWVRQAPGKGLEWVAHIWWDDEKYYVDSVKGRFTISRDNAKNSLYLQMNSLRAEDTAVYYCARTRQYFPFAYWGQGTLVTVSS VL: EIVLTQSPATLSLSPGERATLSCRASQSVGSNLAWYQQKPGQAPRLLIYSASYRATGIPARFSGSGSGTDFTLTISSLEPEDFAVYYCQQYSTDPLTFGGGTKVEIK
–	binds	MH-2 IgG1 (antibody, V domains shown, Human IgG1, designer clone; built as m28; also called Clone MH-2) VH: EVQLVESGGGLVQPGGSLRLSCAASGFSLSTSGYGVSWVRQAPGKGLEWVAHIWWDDEKYYVDSVKGRFTISRDNAKNSLYLQMNSLRAEDTAVYYCARTRQYFPFAYWGQGTLVTVSS VL: EIVLTQSPATLSLSPGERATLSCRASQSVGSNLAWYQQKPGQAPRLLIYSASYRATGIPARFSGSGSGTDFTLTISSLEPEDFAVYYCQQYSTDPLTFGGGTKVEIK
–	binds	MH-4 IgG1 (antibody, V domains shown, Human IgG1, designer clone; built as m28; also called Clone MH-4) VH: EVQLVESGGGLVQPGGSLRLSCAASGFSLSTSGYGMSWVRQAPGKGLEWVAHIWWDDEKYYVDSVKGRFTISRDNAKNSLYLQMNSLRAEDTAVYYCARTRQYFPFAYWGQGTLVTVSS VL: EIVLTQSPATLSLSPGERATLSCRASQSVGSNVAWYQQKPGQAPRLLIYSASYRATGIPARFSGSGSGTDFTLTISSLEPEDFAVYYCQQYSTDPLTFGGGTKVEIK
–	binds	MH-3 IgG1 (antibody, V domains shown, Human IgG1, designer clone; built as m28; also called Clone MH-3) VH: EVQLVESGGGLVQPGGSLRLSCAASGFSLSTSGYGMSWVRQAPGKGLEWVAHIWWDDEKYYVDSVKGRFTISRDNAKNSLYLQMNSLRAEDTAVYYCARTRQYFPFAYWGQGTLVTVSS VL: EIVLTQSPATLSLSPGERATLSCRASQNVGSNLAWYQQKPGQAPRLLIYSASYRATGIPARFSGSGSGTDFTLTISSLEPEDFAVYYCQQYSTDPLTFGGGTKVEIK
> 100 fold	–	VH2/VL1 IgG1 (antibody, V domains shown, Human IgG1; The dash printed in the HCDR1 of VH2 is an alignment gap; also called VH2 family) VH: EVQLVESGGGLVQPGGSLRLSCAASGFTFSSYWMSWVRQAPGKGLEWLAHIWWDDDKYYVDSVKGRFTISRDNAKNSLYLQMNSLRAEDTAVYYCARTRRYFPFAYWGQGTLVTVSS VL: EIVMTQSPATLSVSPGERATLSCKASQNVGTNVAWYQQKPGQAPRLLIYSASYRYSGIPARFSGSGSGTEFTLTISSLQSEDFAVYYCQQYNTDPLTFGGGTKVEIK
> 100 fold	–	VH2/VL2 IgG1 (antibody, V domains shown, Human IgG1; also called VH2 family) VH: EVQLVESGGGLVQPGGSLRLSCAASGFTFSSYWMSWVRQAPGKGLEWLAHIWWDDDKYYVDSVKGRFTISRDNAKNSLYLQMNSLRAEDTAVYYCARTRRYFPFAYWGQGTLVTVSS VL: EIVLTQSPATLSLSPGERATLSCRASQNVGTNVAWYQQKPGQAPRLLIYSASYRYSGIPARFSGSGSGTDFTLTISSLEPEDFAVYYCQQYNTDPLTFGGGTKVEIK

The binders below were run against T1, human GITR-Fc (assay: direct titration ELISA on coated human GITR-Fc, IgG1 0.001-1 µg/ml, OD 450 nm).
Protocol: as §1, §2

Binder	binding result
VH1/VL3 IgG1 (antibody, V domains shown, Human IgG1; also called VH1 family) VH: QVTLRESGPALVKPTQTLTLTCTFSGFSLSTSGMGVGWIRQPPGKALEWLAHIWWDDDKYYNPSLKSRLTISKDTSKNQVVLTMTNMDPVDTATYYCARTRRYFPFAYWGQGTLVTVSS VL: DIQMTQSPSSLSASVGDRVTITCRASQNVGTNVAWYQQKPGKAPKLLIYSASYRYSGVPSRFSGSGSGTDFTLTISSLQPEDFATYYCQQYNTDPLTFGGGTKVEIK	binds
VH4/VL1 IgG1 (antibody, V domains shown, Human IgG1; also called VH4 family) VH: EVQLVQSGAEVKKPGESLKISCKGSGFSLSTSGMGVGWVRQMPGKGLEWLAHIWWDDDKYYSPSFQGQVTISADKSISTAYLQWSSLKASDTAMYYCARTRRYFPFAYWGQGTLVTVSS VL: EIVMTQSPATLSVSPGERATLSCKASQNVGTNVAWYQQKPGQAPRLLIYSASYRYSGIPARFSGSGSGTEFTLTISSLQSEDFAVYYCQQYNTDPLTFGGGTKVEIK	binds

The next lines start with the values.

binding result	Binder
binds	VH3/VL3 IgG1 (antibody, V domains shown, Human IgG1; also called VH3 family) VH: EVQLVESGGGLVQPGGSLRLSCAASGFSLSTSGMGVGWVRQAPGKGLEWLAHIWWDDDKYYVDSVKGRFTISRDNAKNSLYLQMNSLRAEDTAVYYCARTRRYFPFAYWGQGTLVTVSS VL: DIQMTQSPSSLSASVGDRVTITCRASQNVGTNVAWYQQKPGKAPKLLIYSASYRYSGVPSRFSGSGSGTDFTLTISSLQPEDFATYYCQQYNTDPLTFGGGTKVEIK
binds	VH4/VL3 IgG1 (antibody, V domains shown, Human IgG1; also called VH4 family) VH: EVQLVQSGAEVKKPGESLKISCKGSGFSLSTSGMGVGWVRQMPGKGLEWLAHIWWDDDKYYSPSFQGQVTISADKSISTAYLQWSSLKASDTAMYYCARTRRYFPFAYWGQGTLVTVSS VL: DIQMTQSPSSLSASVGDRVTITCRASQNVGTNVAWYQQKPGKAPKLLIYSASYRYSGVPSRFSGSGSGTDFTLTISSLQPEDFATYYCQQYNTDPLTFGGGTKVEIK
binds	VH3/VL1 IgG1 (antibody, V domains shown, Human IgG1; also called VH3 family) VH: EVQLVESGGGLVQPGGSLRLSCAASGFSLSTSGMGVGWVRQAPGKGLEWLAHIWWDDDKYYVDSVKGRFTISRDNAKNSLYLQMNSLRAEDTAVYYCARTRRYFPFAYWGQGTLVTVSS VL: EIVMTQSPATLSVSPGERATLSCKASQNVGTNVAWYQQKPGQAPRLLIYSASYRYSGIPARFSGSGSGTEFTLTISSLQSEDFAVYYCQQYNTDPLTFGGGTKVEIK
binds	VH4/VL2 IgG1 (antibody, V domains shown, Human IgG1; also called VH4 family) VH: EVQLVQSGAEVKKPGESLKISCKGSGFSLSTSGMGVGWVRQMPGKGLEWLAHIWWDDDKYYSPSFQGQVTISADKSISTAYLQWSSLKASDTAMYYCARTRRYFPFAYWGQGTLVTVSS VL: EIVLTQSPATLSLSPGERATLSCRASQNVGTNVAWYQQKPGQAPRLLIYSASYRYSGIPARFSGSGSGTDFTLTISSLEPEDFAVYYCQQYNTDPLTFGGGTKVEIK
binds	VH1/VL2 IgG1 (antibody, V domains shown, Human IgG1; also called VH1 family) VH: QVTLRESGPALVKPTQTLTLTCTFSGFSLSTSGMGVGWIRQPPGKALEWLAHIWWDDDKYYNPSLKSRLTISKDTSKNQVVLTMTNMDPVDTATYYCARTRRYFPFAYWGQGTLVTVSS VL: EIVLTQSPATLSLSPGERATLSCRASQNVGTNVAWYQQKPGQAPRLLIYSASYRYSGIPARFSGSGSGTDFTLTISSLEPEDFAVYYCQQYNTDPLTFGGGTKVEIK
